Data as given in patent publication US20170158753A1.
“And” between values parts separate entries of the source, which are not always exact repeats. Equal values may be shown once. Read-outs that look alike come from different tables or passages of the source.

Legend:
[1] = molecular target: BDBV GP[change] (Bundibugyo virus (BDBV)); assay: ELISA, GPΔTM coated
[2] = molecular target: SUDV GP[change] (Sudan virus) (UniProt Q66814)
[3] = molecular target: EBOV GP[change] (Ebola virus) (UniProt Q05320)
[4] = molecular target: EBOV GP[change] (Ebola virus), Q05320; conditions: remark: other sources report otherwise
[5] = molecular target: EBOV GP[change] (Ebola virus), Q05320; conditions: remark: other sources report otherwise; remark: listed apart in the source
[6] = molecular target: EBOV GP[change] (Ebola virus) (UniProt Q05320); remark: listed apart in the source
[7] = molecular target: MARV GP[change] (Marburg virus) (UniProt P35253)
[8] = molecular target: MARV GP[change] (Marburg virus), P35253; conditions: remark: other sources report otherwise
[9] = molecular target: cleaved EBOV GP (GPcl) (Ebola virus (EBOV)), Q05320; assay: ELISA on thermolysin cleaved EBOV GP (GPcl), OD650 against nM mAb; conditions: remark: other sources report otherwise
[10] = molecular target: RESTV GP[change] (Reston virus) (UniProt Q66799)
[11] = molecular target: cleaved EBOV GP (GPcl) (Ebola virus (EBOV)), Q05320; assay: ELISA on cathepsin-cleaved EBOV GP at pH 5.5; conditions: remark: other sources report otherwise
[12] = molecular target: cleaved EBOV GP (GPcl) (Ebola virus (EBOV)), Q05320; assay: ELISA on cathepsin-cleaved EBOV GP at pH 7; conditions: remark: other sources report otherwise
[13] = molecular target: cleaved EBOV GP (GPcl) (Ebola virus (EBOV)), Q05320; assay: ELISA, cleaved EBOV GP coated; conditions: remark: other sources report otherwise
[14] = molecular target: EBOV GP[change] (Ebola virus), Q05320; conditions: remark: other sources report otherwise; remark: listed apart in the source

B1: m8C4 (antibody, V domains shown)
VH: EVQLQESGPELKKPGETVKISCKASGYTFTTYGMSWVKQAPGKGLKWMGRINTYSGVPTYADEFKGRFAFSLENSASTAYLQINNLKNEDTATYFCARGDGGHWFANWGQGTLVTVSA
VL: DIQMTQSPSSLSASLGGKVTITCKASQDINKNIAWYQHKPGKGPRLLIWYKSALQPGIPSRFSGSGSGRDYSFSISNLEPEDIATYSCLQYDNLPPTFGGGTKLEIKR
EC50 [1]: > 10 µg/mL
EC50 [2]: 0.15 µg/mL and 0.06 µg/mL
EC50 [3]: 0.26 µg/mL
EC50 [4]: 0.21 µg/mL
EC50 [5]: 2.6 nM
EC50 [6]: 6.7 nM

B2: m21B2 (antibody, V domains shown)
VH: EVQLQESGAELVRPGASVTLSCKTSGYTFTDYEMHWVKQTPVHGLEWIGAIDPETGGTAYNQKFKGKATLTADKSSSTAYMELSRLTSEDSAVYYCTGNYATDYWGQGTSVTVSS
VL: DIVMSQSPSSLAVSAGEKVTMSCKSSQSLFNSRSRKNYLAWYQLKPGQSPKLLIYWASTRESGVPDRFTGSGSGTDFTLTISSVQAEDLAVYYCKQSNYLWTFGGGTKLEIKR
EC50 [2]: > 10 µg/mL
EC50 [7]: 0.0688 µg/mL
EC50 [8]: 0.0307 µg/mL
EC50 [4]: > 10 µg/mL

B3: m16G8 (antibody, V domains shown)
VH: EVQLQESGPGLVKPGASVKISCKASGYSFTGYYMNWVKQSPEKSLEWIGEINPSTGGTTYNQKFKAKATLTVDKSSSTAYMQLKSLTSEDSAVYYCVRYSHYYGSGSWYFDVWGTGTTVTVSS
VL: DIQMTQSPASLSASVGETVTITCRASENIYSNLAWYQQKQGKSPQLLVNAATNLADGVPSRFSGSGSGTQFSLKINSLQPEDFGSYYCQHFYVTPYMFGSGTKLEIKR
EC50 [4]: 1.23 µg/mL
EC50 [9]: > 100 nM
EC50 [5]: 3.3 nM

B4: m2E4 (antibody, V domains shown)
VH: EVQLQESGPELVKPGASVKISCKASGYSFTGYYMNWVKQSPEKSLEWIGEINPSTGGTTYNQKFKAKATLTVDKSSSTAYMQLKSLTSEDSAVYYCVRYSHYYGSGSWYFDVWGTGTTVTVSS
VL: DIQMTQSPASLSASVGETVTITCRASENIYSNLAWYQQKQGKSPQLLVNAATNLADGVPSRFSGSGSGTQFSLKINSLQPEDFGSYYCQHFYVTPYTFGSGTKLEIKR
EC50 [1]: 0.69 µg/mL
EC50 [3]: > 10 µg/mL
EC50 [10]: > 10 µg/mL

B5: m2D8 (antibody, V domains shown)
VH: EVQLQESGGELVRPGTSVKISCKASGYTFTNFWLGWIKERPGHGLEWIGDIYPGGHYTNYNENFKGKATLTADTSSNTAYMQVSSLTSEDSAVYFCFTQYYDMDYWGQGTSVTVSS
VL: not shown
EC50 (read off the curve) [11]: 1 µg/mL
EC50 [8]: 0.0573 µg/mL
EC50 [4]: 26.2 µg/mL
EC50 (read off the curve) [12]: 0.7 µg/mL
EC50 [13]: 0.72 µg/mL

B6: m17C6 (antibody, V domains shown)
VH: EVQLQESGPGLVQPSQSLSITCTVSGFSLTSYGVHWVRQSPGKGLEWLGVIWSGGSTDYNAAFISRLSISKDNSKSQVFFKMNSLQADDTAIYYCARNWFDYDNYYSMDYWGQGTSVTVSS
VL: DIQMTQTTSSLSASLGDRVTISCRASQDISNYLNWYQQKPDGTVKLLIYYTSRLHSGVPSRFSGSGSGTDFSLTISNQEPEDIATYYCQQYSNLPWTFGGGTKLEIKR
Kd [14]: 11 nM
EC50 [4]: 0.03 µg/mL
EC50 [9]: 0.6 nM
EC50 [5]: 1 nM
